Measurements: article PMC2822935, “A novel fragment derived from the β chain of human fibrinogen, β43–63, is a potent inhibitor of activated endothelial cells in vitro and in vivo” (British Journal of Cancer, 2010)

Biological target: T1, recombinant human αvβ3 (human, UniProt P06756 31-992; P05106 27-718)
T1 construct: integrin αv, human; integrin β3, human; also called soluble αvβ3; recombinant αvβ3; source: bought: Calbiochem (Merck)
Assay: ELISA; solid-phase direct binding assay: 96-well plates coated overnight with 10 μg/ml β43–63 or 0.5 μg/ml vitronectin, blocked with 5% BSA in PBS; recombinant αvβ3 incubated 1.5 h; detected with anti-αvβ3 antibody, anti-mouse-HRP and OPD, read at 450 nm; nonspecific binding to plastic subtracted
Details: both partners purified

T1 sequence (P06756 31-992, chain 1 of 2): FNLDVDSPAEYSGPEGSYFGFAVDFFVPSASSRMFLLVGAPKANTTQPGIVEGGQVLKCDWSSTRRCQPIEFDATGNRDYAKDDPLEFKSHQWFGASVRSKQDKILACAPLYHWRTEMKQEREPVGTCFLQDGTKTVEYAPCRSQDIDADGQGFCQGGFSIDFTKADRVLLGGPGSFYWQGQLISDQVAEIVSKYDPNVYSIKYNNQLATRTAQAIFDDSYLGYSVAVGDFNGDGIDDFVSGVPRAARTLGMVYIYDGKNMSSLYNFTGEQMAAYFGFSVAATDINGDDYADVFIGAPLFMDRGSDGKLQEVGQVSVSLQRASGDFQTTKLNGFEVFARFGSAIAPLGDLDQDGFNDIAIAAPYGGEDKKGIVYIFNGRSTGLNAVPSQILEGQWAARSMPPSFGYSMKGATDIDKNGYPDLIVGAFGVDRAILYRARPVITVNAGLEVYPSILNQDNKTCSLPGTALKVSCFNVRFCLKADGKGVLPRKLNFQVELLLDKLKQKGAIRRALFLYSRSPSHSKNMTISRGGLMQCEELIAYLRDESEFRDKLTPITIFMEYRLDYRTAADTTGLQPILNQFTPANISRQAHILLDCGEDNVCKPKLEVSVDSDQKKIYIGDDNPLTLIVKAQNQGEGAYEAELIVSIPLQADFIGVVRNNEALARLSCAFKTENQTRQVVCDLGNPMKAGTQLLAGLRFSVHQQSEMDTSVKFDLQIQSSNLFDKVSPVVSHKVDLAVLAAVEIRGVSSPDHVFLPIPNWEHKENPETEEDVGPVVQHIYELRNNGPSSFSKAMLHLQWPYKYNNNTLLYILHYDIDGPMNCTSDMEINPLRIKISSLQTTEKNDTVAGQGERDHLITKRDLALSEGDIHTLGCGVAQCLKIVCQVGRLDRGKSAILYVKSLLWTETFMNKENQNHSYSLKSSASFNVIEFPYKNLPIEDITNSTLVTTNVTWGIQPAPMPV
T1 sequence (P05106 27-718, chain 2 of 2): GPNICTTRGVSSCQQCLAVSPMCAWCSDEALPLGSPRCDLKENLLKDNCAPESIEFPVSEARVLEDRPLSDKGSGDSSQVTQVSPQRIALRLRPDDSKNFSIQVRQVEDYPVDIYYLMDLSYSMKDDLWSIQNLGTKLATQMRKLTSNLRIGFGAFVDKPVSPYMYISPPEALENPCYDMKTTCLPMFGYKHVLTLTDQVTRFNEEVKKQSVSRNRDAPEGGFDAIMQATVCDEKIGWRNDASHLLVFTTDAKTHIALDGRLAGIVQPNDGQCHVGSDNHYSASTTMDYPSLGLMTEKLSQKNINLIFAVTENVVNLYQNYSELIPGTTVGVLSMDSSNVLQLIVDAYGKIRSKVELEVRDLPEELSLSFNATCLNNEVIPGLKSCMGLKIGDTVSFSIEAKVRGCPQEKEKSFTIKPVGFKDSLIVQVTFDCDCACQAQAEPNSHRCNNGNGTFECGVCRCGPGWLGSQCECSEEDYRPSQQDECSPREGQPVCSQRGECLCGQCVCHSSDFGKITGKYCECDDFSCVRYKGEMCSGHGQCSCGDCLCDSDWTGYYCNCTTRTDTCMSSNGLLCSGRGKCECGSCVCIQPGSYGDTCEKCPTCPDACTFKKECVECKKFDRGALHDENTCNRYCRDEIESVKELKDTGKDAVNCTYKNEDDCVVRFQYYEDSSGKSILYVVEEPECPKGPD

B1: β43–63, 20-amino-acid peptide derived from the β chain of human fibrinogen E-fragment (peptide)
peptide: ARPAKAAATQKKVERKAPDA
notes: human fibrinogen β chain, N terminus of the β chain of FgnE, named amino acids 43–63; source: synthetic peptide (GenScript Corporation)
  binding result: binds
